Assay results reported in patent US11472855, “RNA-binding protein” (Panitch Schwarze Belisario & Nadel LLP).
Changes are numbered by the printed parent chain.

Assays:
Details in all cases: label: Alexa680 at 5' and 3'
[1] = target: T1, hPUF_MT(R4→R6_N12S,Q16E, R6_N12S,Q16E) (UniProt Q14671 SEQ:1-349); assay: EMSA; comparable to or relatively weaker than WT U recognition
T1 chain: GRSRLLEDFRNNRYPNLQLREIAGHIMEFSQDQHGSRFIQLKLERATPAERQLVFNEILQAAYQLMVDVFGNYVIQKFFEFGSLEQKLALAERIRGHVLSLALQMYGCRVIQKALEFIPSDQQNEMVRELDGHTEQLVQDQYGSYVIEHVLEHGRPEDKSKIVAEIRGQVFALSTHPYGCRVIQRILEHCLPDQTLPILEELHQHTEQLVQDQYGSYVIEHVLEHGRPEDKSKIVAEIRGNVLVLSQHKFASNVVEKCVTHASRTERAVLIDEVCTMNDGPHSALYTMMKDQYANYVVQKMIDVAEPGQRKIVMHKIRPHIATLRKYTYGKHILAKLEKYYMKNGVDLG

[2] = target: T2, hPUF_MT(R5:A_13R)3(R6:G_13Y)3; assay: EMSA; best of three
T2 chain: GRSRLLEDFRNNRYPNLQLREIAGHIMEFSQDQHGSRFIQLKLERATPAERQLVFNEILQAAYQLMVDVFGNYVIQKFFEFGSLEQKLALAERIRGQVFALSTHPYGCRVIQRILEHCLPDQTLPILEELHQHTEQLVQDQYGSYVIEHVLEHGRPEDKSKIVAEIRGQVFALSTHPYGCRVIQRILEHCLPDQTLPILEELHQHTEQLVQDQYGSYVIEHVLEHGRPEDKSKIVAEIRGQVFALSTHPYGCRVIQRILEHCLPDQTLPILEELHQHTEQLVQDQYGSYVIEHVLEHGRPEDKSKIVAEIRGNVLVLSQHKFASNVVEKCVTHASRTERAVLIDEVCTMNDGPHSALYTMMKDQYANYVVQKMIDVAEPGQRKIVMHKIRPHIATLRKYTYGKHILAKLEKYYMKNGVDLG

[3] = target: T3, hPUF_MT(R3→R5_C12N, R4→R5_C12N, R5_C12N); assay: EMSA; binds only to its target
T3 chain: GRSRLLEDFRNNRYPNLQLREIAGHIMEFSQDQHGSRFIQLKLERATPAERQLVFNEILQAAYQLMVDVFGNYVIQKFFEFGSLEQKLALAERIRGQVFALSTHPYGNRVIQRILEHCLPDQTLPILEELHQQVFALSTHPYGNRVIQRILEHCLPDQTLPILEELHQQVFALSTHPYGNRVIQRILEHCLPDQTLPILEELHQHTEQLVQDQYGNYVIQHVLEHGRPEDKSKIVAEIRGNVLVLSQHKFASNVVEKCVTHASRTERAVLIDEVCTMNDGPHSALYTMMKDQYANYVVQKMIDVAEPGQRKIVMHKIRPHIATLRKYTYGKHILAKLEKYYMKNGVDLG

[4] = target: T4, hPUF_MT(R3→R5, R4→R5, R5; all C12S,Q16E); assay: EMSA; binds only to its target
T4 chain: T3 chain with N108S, Q112E, N144S, Q148E, N180S, Q184E

[5] = target: T5, hPUF_MT(R3→R5, R4→R5, R5; all C12S,Q16R); assay: EMSA; stronger than A-recognising P8
T5 chain: T3 chain with N108S, Q112R, N144S, Q148R, N180S, Q184R

[6] = target: T6, hPUF_MT(R4→R6_N12C, R6_N12C) (UniProt Q14671 SEQ:1-349); assay: EMSA
T6 chain: T1 chain with S144C, E148Q, S216C, E220Q

[7] = target: T5, hPUF_MT(R3→R5, R4→R5, R5; all C12S,Q16R); assay: EMSA; binds only to its target
[8] = target: T4, hPUF_MT(R3→R5, R4→R5, R5; all C12S,Q16E); assay: EMSA; stronger than A-recognising P8
[9] = target: T7, hPUF_MT(R4→R6_N12S,Q16R, R6_N12S,Q16R) (UniProt Q14671 SEQ:1-349); assay: EMSA; comparable to or relatively weaker than WT U recognition
T7 chain: T1 chain with E148R, E220R

[10] = target: T3, hPUF_MT(R3→R5_C12N, R4→R5_C12N, R5_C12N); assay: EMSA; strongest of the four
[11] = target: T8, hPUF_MT(R5:A_13R)3(R6:C_13Y)3; assay: EMSA; best of three
T8 chain: T2 chain with E148R, E220R, E292R

[12] = target: T9, hPUF_MT(R5:G_13R)3(R6:U_13Y)3; assay: EMSA
T9 chain: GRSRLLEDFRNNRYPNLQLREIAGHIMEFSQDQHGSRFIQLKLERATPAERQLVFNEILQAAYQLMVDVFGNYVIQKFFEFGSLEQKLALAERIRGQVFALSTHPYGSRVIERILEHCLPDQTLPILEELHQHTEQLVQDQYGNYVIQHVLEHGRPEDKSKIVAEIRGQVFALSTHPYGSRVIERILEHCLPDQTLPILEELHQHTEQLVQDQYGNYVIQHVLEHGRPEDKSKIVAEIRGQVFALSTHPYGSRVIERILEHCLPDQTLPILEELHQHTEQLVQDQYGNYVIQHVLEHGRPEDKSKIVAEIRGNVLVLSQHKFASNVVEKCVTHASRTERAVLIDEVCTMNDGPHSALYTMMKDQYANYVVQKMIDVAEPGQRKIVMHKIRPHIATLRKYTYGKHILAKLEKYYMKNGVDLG

hPUF_MT(R3→R5, R4→R5) = target: T10, hPUF_MT(R3→R5, R4→R5); assay: EMSA; A-A stacking: H=Y>R>F=W>K
T10 chain: T3 chain with N108C, N144C, N180C

[13] = target: T11, hPUF_MT(R3→R5, R4→R5_R13Y, R5_R13Y); assay: EMSA; H=Y>R>F=W>K
T11 chain: T3 chain with N108C, N144C, R145Y, N180C, R181Y

[14] = target: T12, hPUF_MT(R3→R5, R4→R5_R13H, R5_R13H); assay: EMSA; H=Y>R>F=W>K; Example 5-2 states a different order
T12 chain: T3 chain with N108C, N144C, R145H, N180C, R181H

CCAGAAUUGGAGAUAUUCG (ssRNA) [OTS-1978]: binds [1].

CCAGAAUUGGAGAGAUAUUCG (ssRNA) [OTS-2008]: binds [2].

CCAGAAUUGUCCCUAUUCG (ssRNA) [OTS-1843]: no binding [3]; no binding [4]; binds [5].

CCAGAAUUGAAAAUAUUCG (ssRNA) [OTS-1819] was tested, and the binding signal [6] was ~0.01 fold of U-recognising type.

CCAGAAUUGUGGGUAUUCG (ssRNA) [OTS-1842]: no binding [3]; no binding [7]; binds [8].

CCAGAAUUGCACAUAUUCG (ssRNA) [OTS-1979]: binds [9].

CCAGAAUUGUUUUUAUUCG (ssRNA) [OTS-1841]: binds [10]; no binding [7]; no binding [4].

CCAGAAUUGCACACAUAUUCG (ssRNA) [OTS-2004 (Example 5-4)]: binds [11].

CCAGAAUUGUGUGUGUAUUCG (ssRNA) [OTS-2004 (Example 5-6)]: binds [12].

CCAGAAUUGUAAAUAUUCG (ssRNA) [OTS-1759]: binds (hPUF_MT(R3→R5, R4→R5)); binds [13]; binds [14].
